Reference: the supplement of paper PMC6757056
± gives the standard deviation of the averaged measurements.

B1: library; a variant is named by its letters at N, in order (parent)
chain: GCUGUCACCGGUGUAUUACCCUAGUGGUCGACCGGUCUGAUGAGUCUNNNNNNAGACGAAACAGC

Tests used:
hypoxanthine [1] = variants of: B1; assay: normalized RNA/DNA level with ligand (relative to sTRSVctl = 100) (log10 (% of sTRSVctl)); ligand: hypoxanthine (xanthine aptamer); higher = less ribozyme self-cleavage, higher mRNA level; conditions: ligand concentration (+) RNA-Seq: 5 mM, HEK293T, reporter: mCherry (pCS4076), ligand present: yes
How it was run: (§1)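 RNA level was computed as RNA reads over DNA reads divided by a spiked-in non-cleaving sequence or by the top sequences, then scaled and log-transformed. Scaling was ×100 with log10, the top group was 25 sequences, and the threshold was ≥100 DNA reads. The reads came from HEK293T cells transfected at 4 µg per 6-well well with ribozyme switch library plasmids (mCherry, or eGFP in some ligand experiments). Total RNA was extracted with EDTA 72 h after transfection, with any ligand added 1 h before it.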

hypoxanthine [2] = variants of: B1; assay: normalized RNA/DNA level without ligand (relative to sTRSVctl = 100) (log10 (% of sTRSVctl)); ligand: hypoxanthine (xanthine aptamer); higher = less ribozyme self-cleavage, higher mRNA level; conditions: HEK293T, reporter: mCherry (pCS4076), ligand present: no
How it was run: as §1

GCUGUCACCGGUGUAUUACCCUAGUGGUCGACCGGUCUGAUGAGUCUCCGUAGAGACGAAACAGC
normalized RNA/DNA level with ligand (log10) (hypoxanthine [1]): 1.82 ± 0.024
normalized RNA/DNA level without ligand (log10) (hypoxanthine [2]): 1.35 ± 0.099

GCUGUCACCGGUGUAUUACCCUAGUGGUCGACCGGUCUGAUGAGUCUUAAACUAGACGAAACAGC
normalized RNA/DNA level with ligand (log10) (hypoxanthine [1]): 1.94 ± 0.039
normalized RNA/DNA level without ligand (log10) (hypoxanthine [2]): 1.87 ± 0.034

GCUGUCACCGGUGUAUUACCCUAGUGGUCGACCGGUCUGAUGAGUCUUUAGGAAGACGAAACAGC
normalized RNA/DNA level with ligand (log10) (hypoxanthine [1]): 1.857 ± 0.012
normalized RNA/DNA level without ligand (log10) (hypoxanthine [2]): 1.66 ± 0.032

GCUGUCACCGGUGUAUUACCCUAGUGGUCGACCGGUCUGAUGAGUCUACACAGAGACGAAACAGC
normalized RNA/DNA level with ligand (log10) (hypoxanthine [1]): 1.84 ± 0.023
normalized RNA/DNA level without ligand (log10) (hypoxanthine [2]): 1.42 ± 0.054

GCUGUCACCGGUGUAUUACCCUAGUGGUCGACCGGUCUGAUGAGUCUCAUGGCAGACGAAACAGC
normalized RNA/DNA level with ligand (log10) (hypoxanthine [1]): 1.97 ± 0.044
normalized RNA/DNA level without ligand (log10) (hypoxanthine [2]): 1.87 ± 0.046

GCUGUCACCGGUGUAUUACCCUAGUGGUCGACCGGUCUGAUGAGUCUCUCAACAGACGAAACAGC
normalized RNA/DNA level with ligand (log10) (hypoxanthine [1]): 1.98 ± 0.052
normalized RNA/DNA level without ligand (log10) (hypoxanthine [2]): 1.926 ± 0.0052

GCUGUCACCGGUGUAUUACCCUAGUGGUCGACCGGUCUGAUGAGUCUCCAUUUAGACGAAACAGC
normalized RNA/DNA level with ligand (log10) (hypoxanthine [1]): 1.91 ± 0.021
normalized RNA/DNA level without ligand (log10) (hypoxanthine [2]): 1.86 ± 0.066

GCUGUCACCGGUGUAUUACCCUAGUGGUCGACCGGUCUGAUGAGUCUUUACCCAGACGAAACAGC
normalized RNA/DNA level with ligand (log10) (hypoxanthine [1]): 1.973 ± 0.0071
normalized RNA/DNA level without ligand (log10) (hypoxanthine [2]): 1.93 ± 0.064

GCUGUCACCGGUGUAUUACCCUAGUGGUCGACCGGUCUGAUGAGUCUACGCGUAGACGAAACAGC
normalized RNA/DNA level with ligand (log10) (hypoxanthine [1]): 1.95 ± 0.021
normalized RNA/DNA level without ligand (log10) (hypoxanthine [2]): 1.57 ± 0.096

GCUGUCACCGGUGUAUUACCCUAGUGGUCGACCGGUCUGAUGAGUCUUCGCUCAGACGAAACAGC
normalized RNA/DNA level with ligand (log10) (hypoxanthine [1]): 1.98 ± 0.049
normalized RNA/DNA level without ligand (log10) (hypoxanthine [2]): 2.109 ± 0.015

GCUGUCACCGGUGUAUUACCCUAGUGGUCGACCGGUCUGAUGAGUCUGGCGAGAGACGAAACAGC
normalized RNA/DNA level with ligand (log10) (hypoxanthine [1]): 1.82 ± 0.021
normalized RNA/DNA level without ligand (log10) (hypoxanthine [2]): 1.47 ± 0.087

GCUGUCACCGGUGUAUUACCCUAGUGGUCGACCGGUCUGAUGAGUCUAGGCAAAGACGAAACAGC
normalized RNA/DNA level with ligand (log10) (hypoxanthine [1]): 1.886 ± 0.0036
normalized RNA/DNA level without ligand (log10) (hypoxanthine [2]): 1.74 ± 0.036

GCUGUCACCGGUGUAUUACCCUAGUGGUCGACCGGUCUGAUGAGUCUGAUCUUAGACGAAACAGC
normalized RNA/DNA level with ligand (log10) (hypoxanthine [1]): 1.96 ± 0.028
normalized RNA/DNA level without ligand (log10) (hypoxanthine [2]): 1.943 ± 0.0084

GCUGUCACCGGUGUAUUACCCUAGUGGUCGACCGGUCUGAUGAGUCUGGCAUAAGACGAAACAGC
normalized RNA/DNA level with ligand (log10) (hypoxanthine [1]): 1.941 ± 0.0052
normalized RNA/DNA level without ligand (log10) (hypoxanthine [2]): 1.86 ± 0.032

GCUGUCACCGGUGUAUUACCCUAGUGGUCGACCGGUCUGAUGAGUCUUCGGCAAGACGAAACAGC
normalized RNA/DNA level with ligand (log10) (hypoxanthine [1]): 1.99 ± 0.056
normalized RNA/DNA level without ligand (log10) (hypoxanthine [2]): 1.7 ± 0.098

GCUGUCACCGGUGUAUUACCCUAGUGGUCGACCGGUCUGAUGAGUCUGUAUCAAGACGAAACAGC
normalized RNA/DNA level with ligand (log10) (hypoxanthine [1]): 1.96 ± 0.049
normalized RNA/DNA level without ligand (log10) (hypoxanthine [2]): 1.88 ± 0.02

GCUGUCACCGGUGUAUUACCCUAGUGGUCGACCGGUCUGAUGAGUCUCAGUCGAGACGAAACAGC
normalized RNA/DNA level with ligand (log10) (hypoxanthine [1]): 1.98 ± 0.025
normalized RNA/DNA level without ligand (log10) (hypoxanthine [2]): 1.888 ± 0.0091

GCUGUCACCGGUGUAUUACCCUAGUGGUCGACCGGUCUGAUGAGUCUGUGAGUAGACGAAACAGC
normalized RNA/DNA level with ligand (log10) (hypoxanthine [1]): 1.94 ± 0.028
normalized RNA/DNA level without ligand (log10) (hypoxanthine [2]): 1.639 ± 0.0057

GCUGUCACCGGUGUAUUACCCUAGUGGUCGACCGGUCUGAUGAGUCUUUCAUAAGACGAAACAGC
normalized RNA/DNA level with ligand (log10) (hypoxanthine [1]): 1.88 ± 0.019
normalized RNA/DNA level without ligand (log10) (hypoxanthine [2]): 1.8411 ± 0.0016

GCUGUCACCGGUGUAUUACCCUAGUGGUCGACCGGUCUGAUGAGUCUGACGCAAGACGAAACAGC
normalized RNA/DNA level with ligand (log10) (hypoxanthine [1]): 1.91 ± 0.052
normalized RNA/DNA level without ligand (log10) (hypoxanthine [2]): 1.82 ± 0.034

GCUGUCACCGGUGUAUUACCCUAGUGGUCGACCGGUCUGAUGAGUCUCAUCCUAGACGAAACAGC
normalized RNA/DNA level with ligand (log10) (hypoxanthine [1]): 1.94 ± 0.066
normalized RNA/DNA level without ligand (log10) (hypoxanthine [2]): 1.94 ± 0.023

GCUGUCACCGGUGUAUUACCCUAGUGGUCGACCGGUCUGAUGAGUCUCCCAUAAGACGAAACAGC
normalized RNA/DNA level with ligand (log10) (hypoxanthine [1]): 1.9 ± 0.06
normalized RNA/DNA level without ligand (log10) (hypoxanthine [2]): 1.89 ± 0.11

GCUGUCACCGGUGUAUUACCCUAGUGGUCGACCGGUCUGAUGAGUCUGUUCGAAGACGAAACAGC
normalized RNA/DNA level with ligand (log10) (hypoxanthine [1]): 1.95 ± 0.043
normalized RNA/DNA level without ligand (log10) (hypoxanthine [2]): 1.76 ± 0.023

GCUGUCACCGGUGUAUUACCCUAGUGGUCGACCGGUCUGAUGAGUCUUCCAACAGACGAAACAGC
normalized RNA/DNA level with ligand (log10) (hypoxanthine [1]): 2 ± 0.021
normalized RNA/DNA level without ligand (log10) (hypoxanthine [2]): 1.9 ± 0.033

GCUGUCACCGGUGUAUUACCCUAGUGGUCGACCGGUCUGAUGAGUCUAGCUAUAGACGAAACAGC
normalized RNA/DNA level with ligand (log10) (hypoxanthine [1]): 1.96 ± 0.012
normalized RNA/DNA level without ligand (log10) (hypoxanthine [2]): 1.825 ± 0.0081

GCUGUCACCGGUGUAUUACCCUAGUGGUCGACCGGUCUGAUGAGUCUAGGUGCAGACGAAACAGC
normalized RNA/DNA level with ligand (log10) (hypoxanthine [1]): 1.93 ± 0.051
normalized RNA/DNA level without ligand (log10) (hypoxanthine [2]): 1.68 ± 0.04

GCUGUCACCGGUGUAUUACCCUAGUGGUCGACCGGUCUGAUGAGUCUGUGCCCAGACGAAACAGC
normalized RNA/DNA level with ligand (log10) (hypoxanthine [1]): 1.93 ± 0.027
normalized RNA/DNA level without ligand (log10) (hypoxanthine [2]): 1.82 ± 0.049

GCUGUCACCGGUGUAUUACCCUAGUGGUCGACCGGUCUGAUGAGUCUCUUCAAAGACGAAACAGC
normalized RNA/DNA level with ligand (log10) (hypoxanthine [1]): 1.959 ± 0.013
normalized RNA/DNA level without ligand (log10) (hypoxanthine [2]): 1.82 ± 0.05

GCUGUCACCGGUGUAUUACCCUAGUGGUCGACCGGUCUGAUGAGUCUUUCCCUAGACGAAACAGC
normalized RNA/DNA level with ligand (log10) (hypoxanthine [1]): 2 ± 0.052
normalized RNA/DNA level without ligand (log10) (hypoxanthine [2]): 1.935 ± 0.0058

GCUGUCACCGGUGUAUUACCCUAGUGGUCGACCGGUCUGAUGAGUCUAUUUACAGACGAAACAGC
normalized RNA/DNA level with ligand (log10) (hypoxanthine [1]): 1.927 ± 0.011
normalized RNA/DNA level without ligand (log10) (hypoxanthine [2]): 1.847 ± 0.0068

GCUGUCACCGGUGUAUUACCCUAGUGGUCGACCGGUCUGAUGAGUCUGUACAUAGACGAAACAGC
normalized RNA/DNA level with ligand (log10) (hypoxanthine [1]): 1.9 ± 0.034
normalized RNA/DNA level without ligand (log10) (hypoxanthine [2]): 1.77 ± 0.056

GCUGUCACCGGUGUAUUACCCUAGUGGUCGACCGGUCUGAUGAGUCUGAGGGUAGACGAAACAGC
normalized RNA/DNA level with ligand (log10) (hypoxanthine [1]): 1.93 ± 0.032
normalized RNA/DNA level without ligand (log10) (hypoxanthine [2]): 1.689 ± 0.014

GCUGUCACCGGUGUAUUACCCUAGUGGUCGACCGGUCUGAUGAGUCUCAACCCAGACGAAACAGC
normalized RNA/DNA level with ligand (log10) (hypoxanthine [1]): 1.98 ± 0.012
normalized RNA/DNA level without ligand (log10) (hypoxanthine [2]): 1.855 ± 0.011

GCUGUCACCGGUGUAUUACCCUAGUGGUCGACCGGUCUGAUGAGUCUUAUCCCAGACGAAACAGC
normalized RNA/DNA level with ligand (log10) (hypoxanthine [1]): 1.95 ± 0.045
normalized RNA/DNA level without ligand (log10) (hypoxanthine [2]): 1.9 ± 0.023

GCUGUCACCGGUGUAUUACCCUAGUGGUCGACCGGUCUGAUGAGUCUACGUCUAGACGAAACAGC
normalized RNA/DNA level with ligand (log10) (hypoxanthine [1]): 1.95 ± 0.042
normalized RNA/DNA level without ligand (log10) (hypoxanthine [2]): 1.65 ± 0.066

GCUGUCACCGGUGUAUUACCCUAGUGGUCGACCGGUCUGAUGAGUCUGCGAGCAGACGAAACAGC
normalized RNA/DNA level with ligand (log10) (hypoxanthine [1]): 1.81 ± 0.034
normalized RNA/DNA level without ligand (log10) (hypoxanthine [2]): 1.37 ± 0.079

GCUGUCACCGGUGUAUUACCCUAGUGGUCGACCGGUCUGAUGAGUCUUACGGUAGACGAAACAGC
normalized RNA/DNA level with ligand (log10) (hypoxanthine [1]): 1.847 ± 0.0077
normalized RNA/DNA level without ligand (log10) (hypoxanthine [2]): 1.59 ± 0.064

GCUGUCACCGGUGUAUUACCCUAGUGGUCGACCGGUCUGAUGAGUCUGGCUUCAGACGAAACAGC
normalized RNA/DNA level with ligand (log10) (hypoxanthine [1]): 1.99 ± 0.03
normalized RNA/DNA level without ligand (log10) (hypoxanthine [2]): 1.98 ± 0.041

GCUGUCACCGGUGUAUUACCCUAGUGGUCGACCGGUCUGAUGAGUCUAAGGCAAGACGAAACAGC
normalized RNA/DNA level with ligand (log10) (hypoxanthine [1]): 1.94 ± 0.035
normalized RNA/DNA level without ligand (log10) (hypoxanthine [2]): 1.64 ± 0.043

GCUGUCACCGGUGUAUUACCCUAGUGGUCGACCGGUCUGAUGAGUCUCAACGGAGACGAAACAGC
normalized RNA/DNA level with ligand (log10) (hypoxanthine [1]): 1.85 ± 0.08
normalized RNA/DNA level without ligand (log10) (hypoxanthine [2]): 1.42 ± 0.043

GCUGUCACCGGUGUAUUACCCUAGUGGUCGACCGGUCUGAUGAGUCUACCCCGAGACGAAACAGC
normalized RNA/DNA level with ligand (log10) (hypoxanthine [1]): 1.86 ± 0.032
normalized RNA/DNA level without ligand (log10) (hypoxanthine [2]): 1.45 ± 0.063

GCUGUCACCGGUGUAUUACCCUAGUGGUCGACCGGUCUGAUGAGUCUCUACUCAGACGAAACAGC
normalized RNA/DNA level with ligand (log10) (hypoxanthine [1]): 2.039 ± 0.013
normalized RNA/DNA level without ligand (log10) (hypoxanthine [2]): 1.95 ± 0.025
